Data from doi:10.1101/2021.01.21.427698 (bioRxiv, 2021).

B1: recombinant human septin octamers containing SEPT9_i1 (nonfluorescent) (complex)
chain 1: MSKQQPTQFINPETPGYVGFANLPNQVHRKSVKKGFEFTLMVVGESGLGKSTLINSLFLTDLYPERVIPGAAEKIERTVQIEASTVEIEERGVKLRLTVVDTPGYGDAINCRDCFKTIISYIDEQFERYLHDESGLNRRHIIDNRVHCCFYFISPFGHGLKPLDVAFMKAIHNKVNIVPVIAKADTLTLKERERLKKRILDEIEEHNIKIYHLPDAESDEDEDFKEQTRLLKASIPFSVVGSNQLIEAKGKKVRGRLYPWGVVEVENPEHNDFLKLRTMLITHMQDLQEVTQDLHYENFRSERLKRGGRKVENEDMNKDQILLEKEAELRRMQEMIARMQAQMQMQMQGGDGDGGALGHHV
chain 2: MAATDIARQVGEGCRTVPLAGHVGFDSLPDQLVNKSVSQGFCFNILCVGETGLGKSTLMDTLFNTKFEGEPATHTQPGVQLQSNTYDLQESNVRLKLTIVSTVGFGDQINKEDSYKPIVEFIDAQFEAYLQEELKIRRVLHTYHDSRIHVCLYFIAPTGHSLKSLDLVTMKKLDSKVNIIPIIAKADAISKSELTKFKIKITSELVSNGVQIYQFPTDDESVAEINGTMNAHLPFAVIGSTEELKIGNKMMRARQYPWGTVQVENEAHCDFVKLREMLIRVNMEDLREQTHTRHYELYRRCKLEEMGFKDTDPDSKPFSLQETYEAKRNEFLGELQKKEEEMRQMFVQRVKEKEAELKEAEKELHEKFDRLKKLHQDEKKKLEDKKKSLDDEVNAFKQRKTAAELLQSQGSQAGGSQTLKRDKEKKN
chain 3: MSVSARSAAAEERSVNSSTMVAQQKNLEGYVGFANLPNQVYRKSVKRGFEFTLMVVGESGLGKSTLINSLFLTDLYSPEYPGPSHRIKKTVQVEQSKVLIKEGGVQLLLTIVDTPGFGDAVDNSNCWQPVIDYIDSKFEDYLNAESRVNRRQMPDNRVQCCLYFIAPSGHGLKPLDIEFMKRLHEKVNIIPLIAKADTLTPEECQQFKKQIMKEIQEHKIKIYEFPETDDEEENKLVKKIKDRLPLAVVGSNTIIEVNGKRVRGRQYPWGVAEVENGEHCDFTILRNMLIRTHMQDLKDVTNNVHYENYRSRKLAAVTYNGVDNNKNKGQLTKSPLAQMEEERREHVAKMKKMEMEMEQVFEMKVKEKVQKLKDSEAELQRRHEQMKKNLEAQHKELEEKRRQFEDEKANWEAQQRILEQQNSSRTLEKNKKKGKIF
chain 4: MKKSYSGGTRTSSGRLRRLGDSSGPALKRSFEVEEVETPNSTPPRRVQTPLLRATVASSTQKFQDLGVKNSEPSARHVDSLSQRSPKASLRRVELSGPKAAEPVSRRTELSIDISSKQVENAGAIGPSRFGLKRAEVLGHKTPEPAPRRTEITIVKPQESAHRRMEPPASKVPEVPTAPATDAAPKRVEIQMPKPAEAPTAPSPAQTLENSEPAPVSQLQSRLEPKPQPPVAEATPRSQEATEAAPSCVGDMADTPRDAGLKQAPASRNEKAPVDFGYVGIDSILEQMRRKAMKQGFEFNIMVVGQSGLGKSTLINTLFKSKISRKSVQPTSEERIPKTIEIKSITHDIEEKGVRMKLTVIDTPGFGDHINNENCWQPIMKFINDQYEKYLQEEVNINRKKRIPDTRVHCCLYFIPATGHSLRPLDIEFMKRLSKVVNIVPVIAKADTLTLEERVHFKQRITADLLSNGIDVYPQKEFDEDSEDRLVNEKFREMIPFAVVGSDHEYQVNGKRILGRKTKWGTIEVENTTHCEFAYLRDLLIRTHMQNIKDITSSIHFEAYRVKRLNEGSSAMANGVEEKEPEAPEM
B2: recombinant human septin octamers containing SEPT9_i3 (nonfluorescent) (complex)
chain 1: MSKQQPTQFINPETPGYVGFANLPNQVHRKSVKKGFEFTLMVVGESGLGKSTLINSLFLTDLYPERVIPGAAEKIERTVQIEASTVEIEERGVKLRLTVVDTPGYGDAINCRDCFKTIISYIDEQFERYLHDESGLNRRHIIDNRVHCCFYFISPFGHGLKPLDVAFMKAIHNKVNIVPVIAKADTLTLKERERLKKRILDEIEEHNIKIYHLPDAESDEDEDFKEQTRLLKASIPFSVVGSNQLIEAKGKKVRGRLYPWGVVEVENPEHNDFLKLRTMLITHMQDLQEVTQDLHYENFRSERLKRGGRKVENEDMNKDQILLEKEAELRRMQEMIARMQAQMQMQMQGGDGDGGALGHHV
chain 2: MAATDIARQVGEGCRTVPLAGHVGFDSLPDQLVNKSVSQGFCFNILCVGETGLGKSTLMDTLFNTKFEGEPATHTQPGVQLQSNTYDLQESNVRLKLTIVSTVGFGDQINKEDSYKPIVEFIDAQFEAYLQEELKIRRVLHTYHDSRIHVCLYFIAPTGHSLKSLDLVTMKKLDSKVNIIPIIAKADAISKSELTKFKIKITSELVSNGVQIYQFPTDDESVAEINGTMNAHLPFAVIGSTEELKIGNKMMRARQYPWGTVQVENEAHCDFVKLREMLIRVNMEDLREQTHTRHYELYRRCKLEEMGFKDTDPDSKPFSLQETYEAKRNEFLGELQKKEEEMRQMFVQRVKEKEAELKEAEKELHEKFDRLKKLHQDEKKKLEDKKKSLDDEVNAFKQRKTAAELLQSQGSQAGGSQTLKRDKEKKN
chain 3: MSVSARSAAAEERSVNSSTMVAQQKNLEGYVGFANLPNQVYRKSVKRGFEFTLMVVGESGLGKSTLINSLFLTDLYSPEYPGPSHRIKKTVQVEQSKVLIKEGGVQLLLTIVDTPGFGDAVDNSNCWQPVIDYIDSKFEDYLNAESRVNRRQMPDNRVQCCLYFIAPSGHGLKPLDIEFMKRLHEKVNIIPLIAKADTLTPEECQQFKKQIMKEIQEHKIKIYEFPETDDEEENKLVKKIKDRLPLAVVGSNTIIEVNGKRVRGRQYPWGVAEVENGEHCDFTILRNMLIRTHMQDLKDVTNNVHYENYRSRKLAAVTYNGVDNNKNKGQLTKSPLAQMEEERREHVAKMKKMEMEMEQVFEMKVKEKVQKLKDSEAELQRRHEQMKKNLEAQHKELEEKRRQFEDEKANWEAQQRILEQQNSSRTLEKNKKKGKIF
chain 4: MERDRISALKRSFEVEEVETPNSTPPRRVQTPLLRATVASSTQKFQDLGVKNSEPSARHVDSLSQRSPKASLRRVELSGPKAAEPVSRRTELSIDISSKQVENAGAIGPSRFGLKRAEVLGHKTPEPAPRRTEITIVKPQESAHRRMEPPASKVPEVPTAPATDAAPKRVEIQMPKPAEAPTAPSPAQTLENSEPAPVSQLQSRLEPKPQPPVAEATPRSQEATEAAPSCVGDMADTPRDAGLKQAPASRNEKAPVDFGYVGIDSILEQMRRKAMKQGFEFNIMVVGQSGLGKSTLINTLFKSKISRKSVQPTSEERIPKTIEIKSITHDIEEKGVRMKLTVIDTPGFGDHINNENCWQPIMKFINDQYEKYLQEEVNINRKKRIPDTRVHCCLYFIPATGHSLRPLDIEFMKRLSKVVNIVPVIAKADTLTLEERVHFKQRITADLLSNGIDVYPQKEFDEDSEDRLVNEKFREMIPFAVVGSDHEYQVNGKRILGRKTKWGTIEVENTTHCEFAYLRDLLIRTHMQNIKDITSSIHFEAYRVKRLNEGSSAMANGVEEKEPEAPEM
B3: recombinant mammalian SEPT9_i3-containing octamers (mouse SEPT2, human SEPT6, human SEPT7ΔN19, human SEPT9_i3) (complex)
chain 1: MSKQQPTQFINPETPGYVGFANLPNQVHRKSVKKGFEFTLMVVGESGLGKSTLINSLFLTDLYPERIIPGAAEKIERTVQIEASTVEIEERGVKLRLTVVDTPGYGDAINCRDCFKTIISYIDEQFERYLHDESGLNRRHIIDNRVHCCFYFISPFGHGLKPLDVAFMKAIHNKVNIVPVIAKADTLTLKERERLKKRILDEIEEHSIKIYHLPDAESDEDEDFKEQTRLLKASIPFSVVGSNQLIEAKGKKVRGRLYPWGVVEVENPEHNDFLKLRTMLITHMQDLQEVTQDLHYENFRSERLKRGGRKVENEDMNKDQILLEKEAELRRMQEMIARMQAQMQMQMQGGDSDSGALGQHV
chain 2: MAATDIARQVGEGCRTVPLAGHVGFDSLPDQLVNKSVSQGFCFNILCVGETGLGKSTLMDTLFNTKFEGEPATHTQPGVQLQSNTYDLQESNVRLKLTIVSTVGFGDQINKEDSYKPIVEFIDAQFEAYLQEELKIRRVLHTYHDSRIHVCLYFIAPTGHSLKSLDLVTMKKLDSKVNIIPIIAKADAISKSELTKFKIKITSELVSNGVQIYQFPTDDESVAEINGTMNAHLPFAVIGSTEELKIGNKMMRARQYPWGTVQVENEAHCDFVKLREMLIRVNMEDLREQTHTRHYELYRRCKLEEMGFKDTDPDSKPFSLQETYEAKRNEFLGELQKKEEEMRQMFVQRVKEKEAELKEAEKELHEKFDRLKKLHQDEKKKLEDKKKSLDDEVNAFKQRKTAAELLQSQGSQAGGSQTLKRDKEKKN
chain 3: MVAQQKNLEGYVGFANLPNQVYRKSVKRGFEFTLMVVGESGLGKSTLINSLFLTDLYSPEYPGPSHRIKKTVQVEQSKVLIKEGGVQLLLTIVDTPGFGDAVDNSNCWQPVIDYIDSKFEDYLNAESRVNRRQMPDNRVQCCLYFIAPSGHGLKPLDIEFMKRLHEKVNIIPLIAKADTLTPEECQQFKKQIMKEIQEHKIKIYEFPETDDEEENKLVKKIKDRLPLAVVGSNTIIEVNGKRVRGRQYPWGVAEVENGEHCDFTILRNMLIRTHMQDLKDVTNNVHYENYRSRKLAAVTYNGVDNNKNKGQLTKSPLAQMEEERREHVAKMKKMEMEMEQVFEMKVKEKVQKLKDSEAELQRRHEQMKKNLEAQHKELEEKRRQFEDEKANWEAQQRILEQQNSSRTLEKNKKKGKIF
chain 4: MERDRISALKRSFEVEEVETPNSTPPRRVQTPLLRATVASSTQKFQDLGVKNSEPSARHVDSLSQRSPKASLRRVELSGPKAAEPVSRRTELSIDISSKQVENAGAIGPSRFGLKRAEVLGHKTPEPAPRRTEITIVKPQESAHRRMEPPASKVPEVPTAPATDAAPKRVEIQMPKPAEAPTAPSPAQTLENSEPAPVSQLQSRLEPKPQPPVAEATPRSQEATEAAPSCVGDMADTPRDAGLKQAPASRNEKAPVDFGYVGIDSILEQMRRKAMKQGFEFNIMVVGQSGLGKSTLINTLFKSKISRKSVQPTSEERIPKTIEIKSITHDIEEKGVRMKLTVIDTPGFGDHINNENCWQPIMKFINDQYEKYLQEEVNINRKKRIPDTRVHCCLYFIPATGHSLRPLDIEFMKRLSKVVNIVPVIAKADTLTLEERVHFKQRITADLLSNGIDVYPQKEFDEDSEDRLVNEKFREMIPFAVVGSDHEYQVNGKRILGRKTKWGTIEVENTTHCEFAYLRDLLIRTHMQNIKDITSSIHFEAYRVKRLNEGSSAMANGVEEKEPEAPEM

Biological target: the molecule itself
Test: negative-stain electron microscopy of septin polymerisation

Binding result, binds:
B1, B2, B3
